The target of this series is T1, MrpR (Bacillus subtilis prophage SPβ, UniProt O34558 1-325).
T1 sequence: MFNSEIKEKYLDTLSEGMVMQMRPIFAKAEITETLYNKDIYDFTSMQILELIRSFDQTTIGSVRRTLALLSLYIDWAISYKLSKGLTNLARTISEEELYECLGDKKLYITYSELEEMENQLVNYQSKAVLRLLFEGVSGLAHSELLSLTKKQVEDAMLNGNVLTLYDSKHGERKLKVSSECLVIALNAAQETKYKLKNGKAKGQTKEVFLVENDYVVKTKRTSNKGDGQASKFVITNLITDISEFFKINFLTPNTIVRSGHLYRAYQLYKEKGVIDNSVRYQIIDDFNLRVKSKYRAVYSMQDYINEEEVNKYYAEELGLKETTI
Briefly: ITC; ITC: 20 mM HEPES-Na pH 7.5, 200 mM NaCl, 20 mM KCl, 25 C, 20 uM DNA in cell, protein in syringe, one set of sites; EMSA: same buffer plus 50 ug/ml herring sperm DNA, 50 nM DNA, RT 15 min, 6% native PAGE 0.5x TBE. To be noted: protein: recombinant; tags: C-terminal His6; blunt. On the technique in general: Isothermal titration calorimetry measures the heat released or taken up as one component is titrated into another.

Results on one molecule are retold here after article PMC10516654, “Structural and functional characterization of MrpR, the master repressor of the Bacillus subtilis prophage SPβ”.

By Kd is commonly meant the constant that tells how readily two partners part at equilibrium.

B1: aimR promoter ITC duplex (LC292/LC293) (dsDNA)
DNA 1: GAATTTTAAAGAGATTACAAATACAAAAAATATGTATAAAATAATTGACTCGTAATG
DNA 2: CATTACGAGTCAATTATTTTATACATATTTTTTGTATTTGTAATCTCTTTAAAATTC
Consider B1, for which the Kd is 238 ± 80 nM.
